Experiments:
EPHB2 = EPHB2 (UniProt P29323); experiment: phosphorylation enrichment, bacterial display (enrichment ratio); higher = better substrate or ligand; peptides without Tyr show the background
MERTK = MERTK (UniProt Q12866); experiment: as above
Fes = Fes (UniProt P07332); experiment: as above
c-Abl (mouse) = experiment: as above
FGFR3 = FGFR3 (UniProt P22607); experiment: as above
Fyn = Fyn (UniProt P06241); experiment: as above
Fer (mouse) = experiment: as above
FGFR1 = FGFR1 (UniProt P11362); experiment: as above
c-Src = experiment: as above
EPHB1 = EPHB1 (UniProt P54762); experiment: as above
EPHB1, sequence (P54762 whole entry, looked up): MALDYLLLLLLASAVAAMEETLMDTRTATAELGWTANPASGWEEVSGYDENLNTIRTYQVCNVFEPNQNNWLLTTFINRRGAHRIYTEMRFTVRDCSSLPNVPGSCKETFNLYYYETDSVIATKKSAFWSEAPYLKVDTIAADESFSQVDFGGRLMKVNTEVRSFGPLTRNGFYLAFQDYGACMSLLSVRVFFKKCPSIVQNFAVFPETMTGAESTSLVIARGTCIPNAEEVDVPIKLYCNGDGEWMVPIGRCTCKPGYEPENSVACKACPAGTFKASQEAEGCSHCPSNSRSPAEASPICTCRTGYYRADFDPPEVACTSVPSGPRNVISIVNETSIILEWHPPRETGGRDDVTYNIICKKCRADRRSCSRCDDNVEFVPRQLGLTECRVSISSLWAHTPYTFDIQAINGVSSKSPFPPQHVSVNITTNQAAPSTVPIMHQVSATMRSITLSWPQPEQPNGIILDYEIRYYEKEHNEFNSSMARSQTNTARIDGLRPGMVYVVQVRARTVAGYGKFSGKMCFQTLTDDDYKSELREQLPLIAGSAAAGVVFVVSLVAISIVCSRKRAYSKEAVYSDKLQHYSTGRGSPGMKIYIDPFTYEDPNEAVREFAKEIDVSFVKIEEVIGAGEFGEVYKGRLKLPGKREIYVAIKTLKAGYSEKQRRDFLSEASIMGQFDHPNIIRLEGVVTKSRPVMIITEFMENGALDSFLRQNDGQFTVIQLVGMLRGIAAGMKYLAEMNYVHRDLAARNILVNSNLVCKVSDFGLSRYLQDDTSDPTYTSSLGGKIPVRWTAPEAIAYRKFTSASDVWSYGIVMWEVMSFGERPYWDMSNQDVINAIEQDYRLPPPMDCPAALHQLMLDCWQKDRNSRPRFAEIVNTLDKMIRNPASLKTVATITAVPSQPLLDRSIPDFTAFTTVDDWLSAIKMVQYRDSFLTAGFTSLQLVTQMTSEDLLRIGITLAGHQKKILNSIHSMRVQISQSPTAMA

Hck = Hck (UniProt P08631); experiment: as above
Hck, sequence (P08631 whole entry, looked up): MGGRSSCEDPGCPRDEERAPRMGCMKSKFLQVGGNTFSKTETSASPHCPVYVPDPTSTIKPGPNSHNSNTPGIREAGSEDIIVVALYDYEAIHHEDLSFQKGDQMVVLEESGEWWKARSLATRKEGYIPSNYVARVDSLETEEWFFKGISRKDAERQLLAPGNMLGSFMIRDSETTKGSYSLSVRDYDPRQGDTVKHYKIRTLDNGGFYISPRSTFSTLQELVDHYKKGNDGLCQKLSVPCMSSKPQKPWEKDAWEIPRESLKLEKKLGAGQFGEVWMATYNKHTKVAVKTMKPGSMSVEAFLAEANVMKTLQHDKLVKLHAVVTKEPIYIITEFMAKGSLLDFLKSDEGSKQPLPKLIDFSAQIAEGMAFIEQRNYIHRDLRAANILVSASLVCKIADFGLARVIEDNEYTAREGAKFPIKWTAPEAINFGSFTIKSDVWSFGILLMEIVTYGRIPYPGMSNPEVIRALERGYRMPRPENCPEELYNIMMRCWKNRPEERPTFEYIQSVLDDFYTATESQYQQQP

Jak2 = Jak2 (UniProt O60674); experiment: as above
Jak2, sequence (O60674 whole entry, looked up): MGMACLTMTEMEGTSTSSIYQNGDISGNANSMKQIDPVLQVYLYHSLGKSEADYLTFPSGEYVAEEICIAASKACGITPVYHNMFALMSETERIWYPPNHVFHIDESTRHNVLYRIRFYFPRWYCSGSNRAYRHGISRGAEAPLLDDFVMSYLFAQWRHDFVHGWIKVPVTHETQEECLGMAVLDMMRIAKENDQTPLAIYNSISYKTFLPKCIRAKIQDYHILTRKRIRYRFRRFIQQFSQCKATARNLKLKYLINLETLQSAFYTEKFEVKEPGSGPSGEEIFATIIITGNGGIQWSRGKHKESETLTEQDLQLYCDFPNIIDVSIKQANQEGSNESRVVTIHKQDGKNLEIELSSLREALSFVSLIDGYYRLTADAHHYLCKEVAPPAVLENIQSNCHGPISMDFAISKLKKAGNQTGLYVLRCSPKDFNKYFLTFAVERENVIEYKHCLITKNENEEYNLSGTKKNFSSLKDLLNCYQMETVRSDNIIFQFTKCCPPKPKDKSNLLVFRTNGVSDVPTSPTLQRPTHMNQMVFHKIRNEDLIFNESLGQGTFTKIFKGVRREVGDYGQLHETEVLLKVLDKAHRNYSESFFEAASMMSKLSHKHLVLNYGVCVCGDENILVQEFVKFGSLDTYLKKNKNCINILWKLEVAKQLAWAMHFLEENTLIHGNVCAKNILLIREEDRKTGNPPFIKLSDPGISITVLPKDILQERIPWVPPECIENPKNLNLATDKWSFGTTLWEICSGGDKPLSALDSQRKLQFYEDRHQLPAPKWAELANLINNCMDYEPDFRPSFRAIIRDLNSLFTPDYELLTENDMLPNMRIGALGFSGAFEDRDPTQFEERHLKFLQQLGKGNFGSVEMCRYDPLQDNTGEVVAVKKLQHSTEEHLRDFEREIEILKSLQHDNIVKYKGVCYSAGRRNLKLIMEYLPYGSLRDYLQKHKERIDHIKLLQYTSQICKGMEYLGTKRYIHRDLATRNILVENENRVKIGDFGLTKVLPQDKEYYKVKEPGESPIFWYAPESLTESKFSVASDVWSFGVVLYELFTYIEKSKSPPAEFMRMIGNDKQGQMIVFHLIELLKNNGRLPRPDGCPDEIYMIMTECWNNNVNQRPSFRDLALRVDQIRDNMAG

AncSZ = experiment: as above
SHP2-C SH2 = experiment: SH2 binding enrichment of the phosphorylated peptide, bacterial display (enrichment ratio); higher = better substrate or ligand; peptides without Tyr show the background
c-Src SH2 = experiment: as above
Grb2 SH2 = Grb2 SH2 (UniProt P62993); experiment: as above
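Wherever SH2 binding enrichment of the phosphorylated peptide, bacterial display is given: peptide library displayed on the E. coli surface as eCPX fusions, selected cells deep-sequenced, score is each peptide's frequency after selection divided by its frequency in the input.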
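Wherever phosphorylation enrichment, bacterial display is given: 11-residue human phosphosite peptides and single-mutation variants displayed on the E. coli surface, counted by deep sequencing, each peptide's frequency after selection divided by its frequency in the unselected input library; frequency after pTyr selection over input frequency; kinase dosed for 20-30% of maximal phosphorylation in three min.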

Fes, sequence (P07332 whole entry, looked up): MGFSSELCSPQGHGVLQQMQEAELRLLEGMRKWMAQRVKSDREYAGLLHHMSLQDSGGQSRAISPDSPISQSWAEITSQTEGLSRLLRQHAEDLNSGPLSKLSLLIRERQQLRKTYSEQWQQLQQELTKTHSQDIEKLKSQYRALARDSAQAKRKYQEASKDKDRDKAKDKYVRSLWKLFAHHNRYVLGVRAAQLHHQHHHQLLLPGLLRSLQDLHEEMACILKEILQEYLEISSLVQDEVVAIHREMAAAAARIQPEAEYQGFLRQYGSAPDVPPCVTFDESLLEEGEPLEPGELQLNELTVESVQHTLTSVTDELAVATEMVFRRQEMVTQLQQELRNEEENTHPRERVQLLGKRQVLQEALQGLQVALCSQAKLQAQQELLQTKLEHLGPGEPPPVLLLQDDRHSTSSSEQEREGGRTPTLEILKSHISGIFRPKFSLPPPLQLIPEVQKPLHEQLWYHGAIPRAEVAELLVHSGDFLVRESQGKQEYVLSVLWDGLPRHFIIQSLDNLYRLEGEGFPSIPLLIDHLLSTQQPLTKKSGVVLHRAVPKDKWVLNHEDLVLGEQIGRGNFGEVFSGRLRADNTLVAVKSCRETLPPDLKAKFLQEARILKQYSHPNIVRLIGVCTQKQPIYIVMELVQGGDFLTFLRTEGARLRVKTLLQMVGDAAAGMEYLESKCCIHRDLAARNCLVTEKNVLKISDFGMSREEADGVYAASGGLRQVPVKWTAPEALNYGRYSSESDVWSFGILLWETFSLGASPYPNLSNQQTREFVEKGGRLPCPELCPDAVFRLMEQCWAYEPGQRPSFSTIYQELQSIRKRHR
Fyn, sequence (P06241 whole entry, looked up): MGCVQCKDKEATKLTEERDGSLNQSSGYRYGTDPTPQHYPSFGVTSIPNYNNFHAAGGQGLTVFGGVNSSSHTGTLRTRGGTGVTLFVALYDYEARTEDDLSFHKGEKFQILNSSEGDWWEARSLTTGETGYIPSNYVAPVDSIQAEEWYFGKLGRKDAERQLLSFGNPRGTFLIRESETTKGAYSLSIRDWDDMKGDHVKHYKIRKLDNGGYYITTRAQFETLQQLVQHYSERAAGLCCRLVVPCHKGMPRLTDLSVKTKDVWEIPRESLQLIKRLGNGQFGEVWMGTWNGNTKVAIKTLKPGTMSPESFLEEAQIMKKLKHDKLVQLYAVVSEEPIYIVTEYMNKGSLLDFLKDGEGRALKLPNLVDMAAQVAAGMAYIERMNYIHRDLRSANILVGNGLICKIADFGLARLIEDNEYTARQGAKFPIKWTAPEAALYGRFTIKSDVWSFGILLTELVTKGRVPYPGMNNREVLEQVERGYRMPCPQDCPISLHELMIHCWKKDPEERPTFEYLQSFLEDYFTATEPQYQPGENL
EPHB2, sequence (P29323 whole entry, looked up): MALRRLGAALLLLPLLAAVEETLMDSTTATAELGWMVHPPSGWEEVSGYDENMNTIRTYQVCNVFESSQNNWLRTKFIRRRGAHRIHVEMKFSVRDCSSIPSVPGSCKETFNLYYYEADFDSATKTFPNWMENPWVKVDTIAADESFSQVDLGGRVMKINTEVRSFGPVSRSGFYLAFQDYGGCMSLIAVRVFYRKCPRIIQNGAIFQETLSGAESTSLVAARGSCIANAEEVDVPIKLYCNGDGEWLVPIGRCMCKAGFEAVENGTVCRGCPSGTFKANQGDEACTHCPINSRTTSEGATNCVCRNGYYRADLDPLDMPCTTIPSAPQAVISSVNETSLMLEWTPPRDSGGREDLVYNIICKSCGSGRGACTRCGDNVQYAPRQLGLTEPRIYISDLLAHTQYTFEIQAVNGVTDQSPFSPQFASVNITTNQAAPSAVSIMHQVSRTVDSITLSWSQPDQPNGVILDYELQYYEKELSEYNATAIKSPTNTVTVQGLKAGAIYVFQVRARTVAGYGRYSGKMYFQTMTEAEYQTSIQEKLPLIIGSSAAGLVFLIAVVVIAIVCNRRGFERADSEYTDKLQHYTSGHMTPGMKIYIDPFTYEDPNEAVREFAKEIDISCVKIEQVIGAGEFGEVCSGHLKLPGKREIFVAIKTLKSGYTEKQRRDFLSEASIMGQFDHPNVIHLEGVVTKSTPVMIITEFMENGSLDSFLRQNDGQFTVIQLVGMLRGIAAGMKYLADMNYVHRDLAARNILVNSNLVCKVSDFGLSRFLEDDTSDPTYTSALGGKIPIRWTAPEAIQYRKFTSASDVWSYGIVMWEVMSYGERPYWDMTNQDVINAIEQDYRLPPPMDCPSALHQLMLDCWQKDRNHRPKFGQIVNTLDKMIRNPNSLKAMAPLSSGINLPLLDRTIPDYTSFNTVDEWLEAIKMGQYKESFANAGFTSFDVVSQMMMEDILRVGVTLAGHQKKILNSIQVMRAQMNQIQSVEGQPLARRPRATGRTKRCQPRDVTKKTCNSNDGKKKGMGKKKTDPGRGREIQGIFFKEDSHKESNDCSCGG

Sequence	SH2 binding enrichment (SHP2-C SH2)	SH2 binding enrichment (c-Src SH2)	SH2 binding enrichment (Grb2 SH2)	phosphorylation enrichment (EPHB2)	phosphorylation enrichment (MERTK)	phosphorylation enrichment (Fes)	phosphorylation enrichment (c-Abl (mouse))	phosphorylation enrichment (FGFR3)	phosphorylation enrichment (Fyn)	phosphorylation enrichment (Fer (mouse))	phosphorylation enrichment (FGFR1)	phosphorylation enrichment (c-Src)	phosphorylation enrichment (EPHB1)	phosphorylation enrichment (Hck)	phosphorylation enrichment (Jak2)	phosphorylation enrichment (AncSZ)
RIDPDYMGRVR [IGSF9_Y81_V82M]	0.629	0.577	1.03	0.367	0.442	0.572	0.585	0.656	0.487	0.4	0.344	0.466	0.35	0.369	0.643	0.649
IKSSIYDNRKE [ARAP2_Y380]	0.741	0.445	0.934	0.321	0.416	0.725	0.518	0.504	0.366	0.355	0.538	0.58	0.307	0.753	0.586	1.13
PVFEVYPLLNC [GATA1_Y78_Q76E]	0.73	0.551	0.945	0.756	0.559	1.86	1.03	1.9	0.418	0.533	2.54	0.758	0.742	0.597	1.48	1.64
REEKNYKHKET [BCLAF1_Y459_L461H]	0.46	0.624	0.93	0.55	0.688	1.45	0.917	0.431	0.436	0.647	0.635	0.741	0.422	0.53	0.571	0.829
AVLSLYASDRT [ACTA1_Y145_G148D]	0.88	0.452	0.895	0.664	0.446	1.14	0.893	0.666	0.637	0.515	0.476	0.465	0.662	0.538	0.884	0.967
SGASGYSATST [CERT1_Y143]	0.578	0.486	0.704	0.514	0.44	0.594	0.468	0.446	0.491	0.448	0.478	0.417	0.391	0.478	0.539	0.594
PGQAAYQKVVA [HBB_Y131_V127G]	0.615	0.922	0.984	0.525	0.514	0.831	0.491	0.558	0.478	0.49	0.373	0.579	0.517	0.361	0.626	0.68
VTNHIYTWVDP [DFNB31_Y234]	0.956	1.05	1.14	1.63	7.06	2	0.711	3.33	4.26	10.2	3.77	3.2	2.73	3.06	0.87	2.57
RFLTRYIFNRE [HLA-DQB1_Y62_V59L_YF]	1.17	0.593	0.67	0.567	0.578	1.17	0.631	0.674	0.606	0.897	0.408	0.706	0.624	0.452	1.29	1
LPIQTYSALNF [DES_Y423]	0.834	1.08	0.735	11.7	15.9	1.24	1.59	2.07	13.8	11.1	2.1	8	14.3	18.9	1.27	1.01
AVLQPYIFVAT [CFTR_Y1014]	0.545	0.329	0.65	0.804	0.55	1.69	0.978	1.41	0.606	0.674	1.2	0.701	0.84	0.586	1.84	1.56
EHEALYLEADL [CENPF_Y1920]	0.56	0.57	0.845	0.84	0.77	1.34	0.938	1.8	0.653	1.2	1.73	0.986	0.57	0.715	1.12	1.66
KTTILYKLKLG [ARF1_Y35]	0.973	0.865	1.33	0.411	0.376	1	0.719	0.688	0.358	0.426	0.404	0.336	0.41	0.401	0.909	1.01
IFHENYNAGTF [CFI_Y421_YF]	0.684	0.479	0.869	0.388	0.415	0.647	0.578	0.465	0.461	0.435	0.473	0.456	0.36	0.417	0.615	0.612
DVLVEYQGEGR [GNS_Y416]	0.818	0.606	0.907	0.533	0.414	1.08	0.709	0.599	0.504	0.43	0.545	0.464	0.427	0.496	0.934	0.945
IHFPPYTDWNQ [ALDH3B2_Y365_YF]	0.736	0.821	0.979	0.524	0.431	1.03	0.687	0.685	0.526	1.04	0.659	0.52	0.695	0.519	0.894	1.01
LYEDCYLLGTS [ASS1_Y87_R86C]	0.314	0.962	0.933	3.42	3.13	2.12	1.08	1.28	4.12	13.4	1.26	4.68	7.04	1.9	1.78	2.29

Second part, led by results:

SH2 binding enrichment (SHP2-C SH2)	SH2 binding enrichment (c-Src SH2)	SH2 binding enrichment (Grb2 SH2)	Sequence	phosphorylation enrichment (EPHB2)	phosphorylation enrichment (MERTK)	phosphorylation enrichment (Fes)	phosphorylation enrichment (c-Abl (mouse))	phosphorylation enrichment (FGFR3)	phosphorylation enrichment (Fyn)	phosphorylation enrichment (Fer (mouse))	phosphorylation enrichment (FGFR1)	phosphorylation enrichment (c-Src)	phosphorylation enrichment (EPHB1)	phosphorylation enrichment (Hck)	phosphorylation enrichment (Jak2)	phosphorylation enrichment (AncSZ)
0.885	0.549	0.973	KREPQYSSHSS [SIPA1L3_Y1265_G1261R]	0.306	0.452	0.629	0.486	0.376	0.338	0.401	0.377	0.506	0.423	0.362	0.43	0.559
0.566	0.567	0.767	IPTPAYQSSPA [PDCD6IP_Y727]	0.364	0.356	0.674	0.504	0.422	0.406	0.373	0.377	0.369	0.452	0.38	0.541	0.489
0.719	0.397	0.814	ENQEIYRKAFD [KPNA1_Y493_Q494R]	0.798	0.393	1.13	0.812	0.627	0.431	0.55	0.537	0.451	0.618	0.499	1.3	0.883
0.373	0.468	0.58	SGRRRYTIAAL [TTR_Y125_P122R]	0.581	0.601	0.622	0.512	0.598	0.61	0.6	0.547	0.736	0.615	0.517	0.51	0.602
0.842	0.619	0.997	TNLVPYPRIHF [TUBA1A_Y262]	0.422	0.413	0.655	0.781	0.471	0.378	0.449	0.445	0.392	1.18	0.369	0.624	0.501
0.755	0.467	1.06	IWDLKYTIENP [SND1_Y178_R174W]	0.498	0.426	1.16	1.07	0.82	0.353	0.496	0.497	0.688	0.593	0.433	1.02	1.01
0.607	0.581	0.642	QMIETYFDFRV [NSMF_Y506_L511V]	1.46	1.09	1.39	0.887	4.49	3.37	0.679	5.84	4.53	2.29	2.77	2.78	1.77
0.799	1.08	0.843	CERFSYYGMKA [SLC15A2_Y60]	0.611	0.665	1.04	0.737	2.88	0.689	0.558	3.72	1.1	0.843	1.16	3.12	1.59
0.649	0.817	1.02	DSYWSYCNAVA [SLC20A2_Y436_S434W]	1.93	0.952	1.12	1.45	2.42	5.46	0.644	4.16	4.44	2.64	3.31	1.27	1.43
0.55	0.488	0.601	ADRNHYRRFPR [YBX1_Y145_YF]	0.54	0.552	0.71	0.871	0.508	0.519	0.603	0.539	0.689	0.452	0.556	0.654	0.8
0.669	0.61	0.792	AGIVVYNIIGW [MYH7_Y588_D587V]	0.633	1.17	1.57	1.51	0.807	2.31	0.726	0.506	2.14	0.919	2.35	1.37	1.14
0.645	0.534	1.07	EALDFCGEVRT [PTEN_Y155_Y155C]	0.691	0.482	1.48	0.984	1.09	0.583	0.674	0.803	0.545	0.882	0.642	1.41	1.31
0.979	0.707	0.801	HAVYIYDICHV [TWNK_Y508_V507I]	8.7	6.7	1.77	4.12	1.65	7.62	9.37	1.57	5.31	8.01	5.31	0.989	2.46
1.69	4.35	25	FLNSSYINIST [IL23R_Y178_T175N_YF]	0.368	0.415	0.746	0.383	0.676	0.438	0.367	0.464	0.317	0.338	0.471	0.663	0.652
0.891	0.77	1.12	SGRPGYCLGTR [SCO1_Y60]	0.51	0.462	0.874	0.618	0.563	0.474	0.407	0.406	0.41	0.488	0.426	0.58	0.735
1.02	0.503	1.02	KDPPDYKYQPR [SOX9_Y172_H169P]	0.518	0.375	0.788	0.747	0.479	0.51	0.421	0.461	0.538	0.489	0.353	0.663	0.837
